Measured values: the domain aggregation screens of Martell et al. (2025)

Assay: soluble fraction after stress (log2 fold change); higher = more stays soluble; pooled small domains, quantitative proteomics
Conditions: stress: 75 degC
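Further: 20 min heating vs room temperature control held 20 min.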

| Sequence | soluble fraction (log2) |
| --- | --- |
| HMSGVSESIEKKIQYLLLEKPLPLHDLIEAIEIGKEEDRLKVLRSLMDSDTVKIEDDLYHWNA | -0.133 |
| HMSGYSTLFTRMSREDAQAVVSLLQDDGIEYRYNDDTGTVQVPSATVDQTRAKLVSAGYPRS | -0.268 |
| HMSHANAALTPRARLRLAKLIVEEHWPVATAAKMFMVSPPTARKWATRFRAEGPAGMADRSSRP | -1.63 |
| HMSHFRMLPSITEADAFLKSRSLPAGLEVREQVDAFLAQARQTLALAQEAPWLSKQEVLETLADEFVQTS | -0.652 |
| HMSHFSERLKSLRQQSSITQAKLADDLNVTKSLISMYESGQRLPSFEMLETIADYFNVPLSSLV | -0.541 |
| HMSHGFFTLQSDDLNLLRTVLEGHSSIGDIKIEGIQLVAYLKEPLNGAELNKILFEKGINLSYLVHRK | -2.9 |
| HMSHGFVHLKGAVQHPGIYPVKENTRWDEVVKAAGGLTAAADIQQVNLAKVASDQESLYVPEKGET | 0.149 |
| HMSHGSIYFSGKTGLKGSVDINGTVNSINKKIFLKPGNYNFLIKADGYKNLKGSFQISKGDKKFVELVLIP | -2.1 |
| HMSHGYVELKAENNDALISALENHTWFENIKLDPETNLVKAILTKPIEAENLNKMLFEKGIILSHLVKRK | -0.376 |
| HMSHYDILEVDPKASATEIKQSFRKKSLQYHPDRNKSSDAHEYMTKITEAYNILGDKDKRRHYDMELKL | 0.568 |
| HMSHYEYKVGDRVNLLDYDDFGILYKEKDNFYNVVVYYNGEFVEVNVKRITLEVAAKELYPEGYDLSTLFV | -3.97 |
| HMSIASASVKEKIRDIVSSEPPQKPFSDAKIAEILAEDGIAIARRTVAKYREEIGIPTKSLRKR | -0.0706 |
| HMSIDNALLTLIGKTGTAQTVLRPSGKVVIGDEVYDAVTAGEFIDKGSAIVVTRVEATQLYVEASEA | -0.411 |
| HMSIELEISADGNNYRVSGLSDGEDVRVYSVSGVQVFSGKAQGGEVVIPADNWNKGIYVISAGGSSVKVL | -0.594 |
| HMSIGLEDLIEQKGVADTDLRPSGWINVGNQRIFVVTEGSYIDQNDNVIILSVDGNRVVVRKI | -1.2 |
| HMSIGLEELVGSHGEAITDLRPAGQVSIAARRISAVSEGDFINKGDSVEVLSVEGYRVMVRKLET | -0.34 |
| HMSIITLFQEINAAVAEATGGRVPESVVQNFILGKDVVIPEDVKEIIISKLKAFATDIEGMLEESGFD | -2.62 |
| HMSILDEAEFKKIESALLDFITNNIFTVKELLQASRGIKQDKFWKVFQFLQSERKVVVNELGYIEL | -0.287 |
| HMSILSIGLERGMKKGVAWGIAKSILDILEETGPVSEKTREMIVTETDAERLSAWVKKAARSNSEEDFLSK | -0.799 |
| HMSILSRREHEIMQWVKGGKTNIEIAQILGISARTVRNHLQNVFRKLDVINRAQAVFEVERRR | -2.68 |
| HMSIMNEQIREILNQQVTKTSKIQQLLLLGLTRRQVADLVTNGNYGFVQNVYRNMLDAGIFTP | -1.13 |
| HMSIMNLSEKIVVLRKSNGMSQEELAEKLYVSRQAVSRWEMGTAVPDSTNILQLGKLFHVTTDYLLNDEYE | -3.36 |
| HMSINQIADKGYITRLIDNNANIKDVLYYDASSRILAIEDPKYMFYLKNTDWNQFAKEMGFKLE | -0.794 |
| HMSINTLEVHSLKALENLAESPLLISFSYENEEYNYRLASSDVSLLKKISSNYSDDSDIKGLRFIS | -0.893 |

| Sequence | soluble fraction (log2) |
| --- | --- |
| HMSIQQEATGNRIRELLLNNGYTVKDIQEVMGFENPQAVYKWLSGKSLPNLDNLLILSKVLHTSIEDILV | -1.09 |
| HMSISSIDFENLKSDELSDAQITQIYRQAQEQGLSIDELSSLAIARGMSPTEVAKLRSRFNSIP | 0.0936 |
| HMSIVVPDLRGKTLEEARAILKEADLDFEINDSTFSKTARPGTIRDVVPSPGSRVKAGRILFISINGF | -0.781 |
| HMSIYQYFNISEINSIDDLKKQYFKLAKKYHPDAGGDKVSFQELQNEYEQLTKKILSGAELNADELKTE | -0.126 |
| HMSKASLFFLFNHKDELYIVDNNHVQDVPKPRELIRRFSTIEQIREHALHLGLPIANDTARE | -3.31 |
| HMSKEGLASLLEDINGLGAIRRKTLIDHFGSVAKIRGARPEEIAALPGMGRKIAEHILASLRED | -0.541 |
| HMSKEKQILQLLQHGYSQRRIADTLSVSRNTVAKVAKAAIEHPVSSDSLDSIDELELHQKLFPEEVLI | -0.486 |
| HMSKGKNEVIAYLKAHNDHRLTVAEILDGLKEEGISINRSTIYRNLDKLVENGDILAFKGKDSESAFYQYS | 0.0611 |
| HMSKHLWNKVLPKVTTANITNLINQAIRKGEWRMDNKGVVHIIWRYRGKIIEVTGYLKDKVFNVGNAWVR | 0.226 |
| HMSKITNALLMMKLLSNGKVYSVKELSEELGVTERMVRNYKEQLEMSGYIIESFKGPGGGYFINKN | -2.61 |
| HMSKKAIVINLLKRPDGASLKDIMQATYWQAHSVRGFISGSLTKKMGLNVESFKRPDGERAYRIN | -2.47 |
| HMSKLIDQELINFFKNQIESKSFRYGVSIEDSYEEIKSNQIKFYGEQEDKLKAIDNAFIELKRERAGIR | -0.168 |
| HMSKNDLAGDEADVYKLLSVETGKPISDLVNRLPFGKSKTREILNTLAEKGFVYISGSGRGTKYHR | -0.296 |
| HMSKNTFIGNIDDKELYVGSGRYGPFMLYDGKFTNITRYLSDESKELTDITIDDYSKIVNNARPK | -0.175 |
| HMSKNVTMPNLVGYSMRQAKAELLSRGLHLGKLIYVNDIATNNVISQLYRNAEIEPGVKIESESYVDLVVG | -1.76 |
| HMSKPTLTDELLTLDLFEEIIKAKENAKGANKRFSLVGFLESKYIVDQEMLPKVNVKVTEYYNLTREN | -1.8 |
| HMSKPVVWIVGDSTVSAFTDNYYYPRYGWGTQIDKYLDGTFEVKNIALSGRSSTSYTADKEYGELIAG | 0.293 |
| HMSKRIFPNEFQRNSPDAMVMLDKMNLSRINVDPLTKSLTLNGGGSVKTLLNGREVSAVEIAALSP | 0.124 |
| HMSKSENLYSAARELIPGGVNSPVRAFTGVGGTPLFIEKADGAYLYDVDGKAYIDYVGSWGPMVLGHNHP | -0.337 |
| HMSKSIEEIYDEAIRSLANEEYDSAKKLFSYLIDNFSDPEKLPLSLFWLGEIEFSSSNFDQSKIHYIE | -0.15 |
| HMSKSIGEALKEERRSLGLTQEQFIKGIISESFYSKVERGKNEIVAVDLLKILAANNISEEEFLSKLN | -0.694 |
| HMSKSPELMEKIKEFAEGYFRENGETPSNKTIAGAMGMGRSTVYYYLVDMAQRGMISYENGVISTEKIRKL | -1.4 |
| HMSKTDYKILYSDLNREDAKQLSLLLEDKKIPYQTSEDGKTIKIPEGMVNRFRMEVATMGVNF | -0.0248 |
| HMSKTKDVLVQLMAERGLTQSDIARALSVRPQAVQQWVSGKTRPTGKNLEALAEFLQLPPAVIVHGP | -0.282 |

| Sequence | soluble fraction (log2) |
| --- | --- |
| HMSKTQVKSVLDDIKGIGVVRRKALIKHFNDIEAIKAAQLAELKAVAGMDSKSAQSVYDFFHK | -0.453 |
| HMSKYERVYTGSEINVNHLKSQLEDAGISSVVRNDHESAIRAGFGSDYDRGVLLFVEKDNLLRAKHIIEKT | 0.126 |
| HMSKYLAFTVKKNDELLPFIEKALNGISHTKAKAILANGGAMVNKNTITQYNYPLTPGMTVEISRH | -0.5 |
| HMSLDLNENEKTIFDIIQNKKTIRLSELKIEAGLSNKGWDKAMKSLTKQGLAKVVKTEDQLTVKLL | -0.499 |
| HMSLEDNEVIQRMKVILDRFDEETAVDRTTAFKAVLDHIGKMDAESKTLEHMAEMLEALLDKVLEE | -1.09 |
| HMSLGPNAYGKPATALNILRETVMGKELFDHAFKTYSKRWMFKHPSPEDFFRTMEDASAVDLDWFWR | 0.178 |
| HMSLGSQEYSIGFRNGDSTYHYIDKALKELAYEGVIDELSTQWFGSSRAVDFPSQKDALSELGYIA | -0.123 |
| HMSLGSSLFHARKKSGLTQEAVAEKLGVSRQTISKWETNETLPDIRQSKGLAMLYHMTLDELIE | -0.422 |
| HMSLGTDVVPDFTGKGIKEAKTEFAAYSEGELYIIGEGEKVKEQFPLPGEKVNKNSDLILYV | 0.0388 |
| HMSLIDLLQLNRKSKKLTLMNLVEMTGLSYGKVYRIFNGGIDKPTPDSLKLLAKALQLDYSYLFHKAGYL | -0.468 |
| HMSLIEQKSQIPLVQGGQRVDKVAAALFTDFSRAELTGWIQQGALTLDGAVVKPKYKVLGGEWLYLRASQS | -1.75 |
| HMSLNIIEITAKKEINELKSFNIIYFNFDKNNSIYEYKISEREKKEILEIEKIIKNSDNVTNYEIRYSF | -1.31 |
| HMSLNQRIKEARIKMGYTQEQLGNLIGVAKTTISGYEKNREPDAATIGLIIDALKVDANFLFQ | -2.06 |
| HMSLNSELIARIENLIASIEDKRSWGYGFAESVLGQVQAGATLSPRQLEIIAKLEKENSYSVQLERQ | -1.16 |
| HMSLPALSAEEQKIVDALHGTPKGVDDIIAETGISSGALLRSLTMLELKKVIVRLPGNRIAPK | -1.53 |
| HMSLPDREVVLETSSDSYYHFKTDHFQRQITYSAVRNAPVRLVTISAERAFEVISLNRRGERPEHLE | -3.24 |
| HMSLQEISDLISQAERADQEQLKEVLKQLHQVESGNQPMSKGFLSSALSTLNKYPALITSIGQLLFKLAT | -0.217 |
| HMSLSEGVSADVVADVQARLMELGYMDEDDPDGNFSESTRIAVEHFQQQAGLPVTGTVDKATLDALNSPD | 0.264 |
| HMSLSQLGLTPRQTDVLALLLKGQPNKLIARELGLSVETVKDHVAAVLRALNVSSRTQAVIAVSQMLQ | -2.13 |
| HMSLSVEESYKLLDISPSAGDEEITKKFRLLALKYHPDKNRSKIEWANNIMSRLNQAYSVIMSSRFESNAE | -1.6 |
| HMSLTTKSVEETLGITRQTLHNWIKEGLLPAPKKDFRNWYIWSDEDLENLRNIIEQKTLINNKKQAV | 0.203 |
| HMSMANKKDFILDTAQKLFMEQGFDQTSISQILEATQIARGTLYYYFSSKEEIMDAIIERTIEQ | -0.966 |
